Molecular target: T1, CFP-tagged hABHD5 (Human ABHD5-ECFP) (human), Q8WTS1
T1 chain: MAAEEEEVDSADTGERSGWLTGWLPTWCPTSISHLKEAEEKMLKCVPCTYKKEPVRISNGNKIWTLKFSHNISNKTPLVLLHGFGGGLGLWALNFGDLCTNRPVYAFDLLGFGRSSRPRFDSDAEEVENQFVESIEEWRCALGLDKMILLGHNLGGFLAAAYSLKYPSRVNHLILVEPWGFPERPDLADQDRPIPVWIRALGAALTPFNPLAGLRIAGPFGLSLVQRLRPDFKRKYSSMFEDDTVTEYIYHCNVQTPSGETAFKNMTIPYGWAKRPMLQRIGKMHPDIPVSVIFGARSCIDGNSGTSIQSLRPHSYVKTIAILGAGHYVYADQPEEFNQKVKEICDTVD
Assay: fluorescence cross-correlation spectroscopy (FCCS); live cell dual color FCCS in transfected cells loaded with oleic acid overnight; excitation focused into the center of the cytoplasm; Fc = fraction of diffusers that are multicolored clusters
Conditions: remark: other sources report otherwise

- Fc (fraction of diffusers that are multicolored clusters of ABHD5 and PNPLA3): 0.32
- percent of ABHD5 codiffusing with PNPLA3: 24%
- percent of PNPLA3 codiffusing with ABHD5: 78%
B1: WT hPNPLA3-EYFP, Q9NST1 1-481 (natural protein)
chain: MYDAERGWSLSFAGCGFLGFYHVGATRCLSEHAPHLLRDARMLFGASAGALHCVGVLSGIPLEQTLQVLSDLVRKARSRNIGIFHPSFNLSKFLRQGLCKCLPANVHQLISGKIGISLTRVSDGENVLVSDFRSKDEVVDALVCSCFIPFYSGLIPPSFRGVRYVDGGVSDNVPFIDAKTTITVSPFYGEYDICPKVKSTNFLHVDITKLSLRLCTGNLYLLSRAFVPPDLKVLGEICLRGYLDAFRFLEEKGICNRPQPGLKSSSEGMDPEVAMPSWANMSLDSSPESAALAVRLEGDELLDHLRLSILPWDESILDTLSPRLATALSEEMKDKGGYMSKICNLLPIRIMSYVMLPCTLPVESAIAIVQRLVTWLPDMPDDVLWLQWVTSQVFTRVLMCLLPASRSQMPVSSQQASPCTPEQDWPCWTPCSPKGCPAETKAEATPRSILRSSLNFFLGNKVPAGAEGLSTFPSFSLEKSL
